Experimental findings from patent US20140186363A1 (UNIVERSITY OF ZURICH, published 2014) are described below.

The target of assay [1] is T1, MAGEA3 peptide no 24.
T1 construct: also called MAGEA3 aa 231-250
T1 peptide: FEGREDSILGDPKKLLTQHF
Briefly: peptide ELISA (coated 20mer). The method, then: (§1) 20mer peptides spanning the entire MAGEA3 protein with 10 aa overlaps shared by each adjacent peptide (Peptides&Elephants, Nuthetal, Germany) were used to coat Maxisorp ELISA plates (Nunc, Rochester, N.Y.). As control a 20mer peptide representing amino acids 40-21 from the NY-ESO-1 protein was used (rev). The numbering of amino acids of MAGEA3 is based on SEQ ID No:41.
(§2) Human recombinant antibody was used at a concentration of 1 μg/ml. Bound human antibody was detected using horseradish peroxidase-conjugated goat anti-human IgG Fc-gamma specific antibodies (Jackson ImmunoResearch, Europe Ltd., Cambridgeshire, UK).
A general note: ELISA stands for enzyme-linked immunosorbent assay.

Assay [2] has as its target T2, MAGEA3 peptide no 25.
T2 construct: also called MAGEA3 aa 241-260
T2 peptide: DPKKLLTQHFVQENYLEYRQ
Briefly: peptide ELISA (coated 20mer). The method, then:
as §1, §2

For assay [3], the target named is T3, MAGEA3 peptide no 22.
T3 construct: also called MAGEA3 aa 211-230
T3 peptide: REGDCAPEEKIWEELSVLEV
Briefly: peptide ELISA (coated 20mer). The method, then: as §1, §2

For assay [4], the target named is T4, MAGEA3 peptide no 20.
T4 construct: also called MAGEA3 aa 191-210
T4 peptide: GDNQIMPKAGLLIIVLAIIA
Briefly: peptide ELISA (coated 20mer). Here is the method: as §1, §2

Assay [5] deals with T5, MAGEA3 peptide no 23.
T5 construct: also called MAGEA3 aa 221-240
T5 peptide: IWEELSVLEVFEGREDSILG
Kind of assay: peptide ELISA (coated 20mer). Here is the method: as §1, §2

Assay [6] has as its target T6, MAGEA3 peptide no 31.
T6 construct: also called MAGEA3 aa 295-314
T6 peptide: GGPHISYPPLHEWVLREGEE
Briefly: peptide ELISA (coated 20mer). The method, then:
as §1, §2

The target in assay [7] is T7, MAGEA3 peptide no 8.
T7 construct: also called MAGEA3 aa 71-90
T7 peptide: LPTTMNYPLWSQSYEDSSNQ
Kind of assay: peptide ELISA (coated 20mer). The method, then:
as §1, §2

Assay [8] concerns the target T8, MAGEA3 peptide no 7.
T8 construct: also called MAGEA3 aa 61-80
T8 peptide: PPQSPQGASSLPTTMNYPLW
Kind of assay: peptide ELISA (coated 20mer). Here is the method:
as §1, §2

Assay [9] deals with T9, MAGEA3 peptide no 29.
T9 construct: also called MAGEA3 aa 281-300
T9 peptide: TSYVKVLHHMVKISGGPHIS
Kind of assay: peptide ELISA (coated 20mer). Here is the method: as §1, §2

Assay [10] addresses T10, MAGEA3 peptide no 16.
T10 construct: also called MAGEA3 aa 151-170
T10 peptide: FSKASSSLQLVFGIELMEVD
Kind of assay: peptide ELISA (coated 20mer). Here is the method:
as §1, §2

The target in assay [11] is T11, MAGEA3 peptide no 12.
T11 construct: also called MAGEA3 aa 111-130
T11 peptide: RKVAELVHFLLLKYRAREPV
Kind of assay: peptide ELISA (coated 20mer). The method, then:
as §1, §2

Assay [12] concerns the target T12, MAGEA3 peptide no 27.
T12 construct: also called MAGEA3 aa 261-280
T12 peptide: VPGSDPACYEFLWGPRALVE
Briefly: peptide ELISA (coated 20mer). The method, then: as §1, §2

For assay [13], the target named is T13, MAGEA3 peptide no 15.
T13 construct: also called MAGEA3 aa 141-160
T13 peptide: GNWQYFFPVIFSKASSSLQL
Briefly: peptide ELISA (coated 20mer). The method, then:
as §1, §2

In assay [14] the target is T14, MAGEA3 peptide no 1.
T14 construct: also called MAGEA3 aa 1-20
T14 peptide: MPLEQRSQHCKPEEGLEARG
Briefly: peptide ELISA (coated 20mer). The method, then: as §1, §2

The target of assay [15] is T15, MAGEA3 peptide no 14.
T15 construct: also called MAGEA3 aa 131-150
T15 peptide: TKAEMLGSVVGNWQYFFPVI
Kind of assay: peptide ELISA (coated 20mer). Here is the method:
as §1, §2

The target in assay [16] is T16, MAGEA3 (human, UniProt P43357 1-314).
T16 construct: also called recombinant MAGEA3; MAGEA3-protein
Kind of assay: ELISA, plate coated with recombinant MAGEA3, serial dilution of antibody [Figure 4].

B1: 32H2 (antibody, V domains shown)
VH: QVQLVESGGGVVQPGRSLRLSCAASGFTFSSNAMHWVRQAPGKGLEWVAVISHDGSNKYYADSVKGRFTISRDNSKNTLYLQMNSLRAEDTAVYYCARDGSGSYFNLDYWGQGTLVTVSS
VL: QSALTQPASVSGSPGQSITISCTGTSSDVGGYNYVSWYQQHPGKAPKLMIYEVSNRPSGVSNRFSGSKSGNTASLTISGLQAEDEADYYCSSYTSSSTLVFGTGTKVTVL
notes: Patient-derived human antibody made recombinantly; also called human monoclonal antibody 32H2
For B1, the binding result in assay [1], in [2], in assay [3], in [4], in assay [5] and in assay [6] was “no binding (tested: 1 µg/ml)” in each case. In addition, the binding result in [7], in [8], in assay [9], in [10], in assay [11] and in assay [12] was “no binding (tested: 1 µg/ml)” in each case. Besides, the binding result in [13], in [14] and in assay [15] was “no binding (tested: 1 µg/ml)” in each case.

B2: 102G10 (antibody, V domains shown)
VH: EVQLVESGGGLVKPGGSLRLSCAASGFTFSGNSMNWVRQAPGKGLEWVSSISSSSGYIYYADSVKGRFTVSRDNAKNSLYLQMNSLRAEDTAVYYCATWPVTTARVGYWGQGTLVTVSS
VL: QSVLTQPPSASGTPGQRVTISCSGSSSNIGSNYVYWHQQLPGTAPKLLIYRHDQRPSGVPDRFSGSKSGTSASLAISGLRSEDEADYYCAAWDDSLSAWVFGGGTKLTVL
notes: Patient-derived human antibody made recombinantly; also called human monoclonal antibody 102G10
By EC50 is commonly meant the concentration giving half of the maximal effect. Turning to B2, the EC50 in [16] was 34 pM.
